The values that follow come from publication PMC9418451.

The Kd is the constant that tells how readily two partners part at equilibrium. Read a high Kd as weaker binding.

The target of one experiment is SecYEG (UniProt P0AGA2). The experiment can be described thus: high-speed atomic force microscopy.
The next experiment deals with SecYEG G297LBT (UniProt P0AGA2). The experiment can be described thus: FRET or BRET.

In the experiment with SecYEG, “SecA (from UniProt P10408 1-901) (natural protein)” came in with a dissociation constant (Kd) of 10 nM, a tau off (time constant of the periods in which SecA was bound) of 1.1 s and a tau on (time constant of the unbound periods until SecA rebinds) of 1.7 s.
“SecA(N95) K797C labeled with Atto488 (from UniProt P10408 1-901) (natural protein)” returned an occupancy of SecYEG molecules by SecA with SecYEG G297LBT of 10%.
